The target in this assay is Sambucus nigra agglutinin (Sambucus nigra). Put plainly: localized surface plasmon resonance.

From article PMC7347289 come the findings set out here.

Sambucus nigra agglutinin (Sambucus nigra), sequence (Q41358 29-289 limits assumed, chain 1 of 2): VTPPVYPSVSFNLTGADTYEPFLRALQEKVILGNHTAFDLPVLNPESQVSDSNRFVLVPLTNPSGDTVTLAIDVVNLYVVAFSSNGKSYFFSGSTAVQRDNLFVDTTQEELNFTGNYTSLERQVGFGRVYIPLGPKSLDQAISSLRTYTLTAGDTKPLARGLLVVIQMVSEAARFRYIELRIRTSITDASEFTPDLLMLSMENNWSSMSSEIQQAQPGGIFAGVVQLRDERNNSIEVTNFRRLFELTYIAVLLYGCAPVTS
Sambucus nigra agglutinin (Sambucus nigra), sequence (Q41358 309-570 limits assumed, chain 2 of 2): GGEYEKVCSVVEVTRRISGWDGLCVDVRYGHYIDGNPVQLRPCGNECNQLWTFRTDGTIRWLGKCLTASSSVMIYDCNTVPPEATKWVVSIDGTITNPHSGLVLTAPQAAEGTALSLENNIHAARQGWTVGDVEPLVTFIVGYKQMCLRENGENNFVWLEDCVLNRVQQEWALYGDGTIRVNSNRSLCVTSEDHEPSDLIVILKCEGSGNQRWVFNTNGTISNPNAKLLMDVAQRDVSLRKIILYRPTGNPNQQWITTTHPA

Broadly, the Kd is the concentration at which binding is half-saturated. As for “α-1 acid glycoprotein (from UniProt P02763 19-201) (natural protein)”, the Kd amounted to 31 µM.
